{"source": "patent US8629107B2", "about": "“Genes and proteins associated with angiogenesis and uses thereof” (National Jewish Health, priority 2005, dated 2014)", "molecules": {"B1": {"name": "AK002276: putative transmembrane protein stably expressed in MB114 cells by retroviral transduction (protein, listed as Mus musculus)", "chain": "MASRESGGSRAAALLLVLGVERSLALPKICTLCPGGMHNLSRVAAYCEDTSKLMQARCCLNQKGPILGLNLQNCSLKDPGPNFLQAYTAIIIDLQANPLKDDLANTFRGFTQLQTLILPQDVPCPGGSNAWDNVTSFKDKQICQGQRDLCNSTGSPEMCPENGSCASDGPGLLQCVCADGFHGYKCMRQGSFSLLMFFGILGSTTLAISILLWGTQRRKAKAS"}, "B2": {"name": "ECM-1: secretory glycoprotein stably expressed in MB114 cells by retroviral transduction (protein, UniProt Q61508 20-559, looked up)", "Extracellular matrix protein 1": "ASEGAFKASDQREMTPERLFQHLHEVGYAAPPSPPQTRRLRVDHSVTSLHDPPLFEEQREVQPPSSPEDIPVYEEDWPTFLNPNVDKAGPAVPQEAIPLQKEQPPPQVHIEQKEIDPPAQPQEEIVQKEVKPHTLAGQLPPEPRTWNPARHCQQGRRGVWGHRLDGFPPGRPSPDNLKQICLPERQHVIYGPWNLPQTGYSHLSRQGETLNVLETGYSRCCRCRSDTNRLDCLKLVWEDAMTQFCEAEFSVKTRPHLCCRLRGEERFSCFQKEAPRPDYLLRPCPVHQNGMSSGPQLPFPPGLPTPDNVKNICLLRRFRAVPRNLPATDAIQRQLQALTRLETEFQRCCRQGHNHTCTWKAWEGTLDGYCERELAIKTHPHSCCHYPPSPARDECFAHLAPYPNYDRDILTLDLSRVTPNLMGQLCGSGRVLSKHKQIPGLIQNMTIRCCELPYPEQACCGEEEKLAFIENLCGPRRNSWKDPALCCDLSPEDKQINCFNTNYLRNVALVAGDTGNATGLGEQGPTRGTDANPAPGSKEE"}, "B3": {"name": "CRELD-2: secretory protein stably expressed in MB114 cells by retroviral transduction (protein, UniProt Q9CYA0 23-350, looked up)", "Protein disulfide isomerase …": "SRKPTMCQRCRTLVDKFNQGMANTARKNFGGGNTAWEEKTLSKYEFSEIRLLEIMEGLCDSSDFECNQLLEQQEEQLEAWWQTLKKEHPNLFEWFCVHTLKACCLPGTYGPDCQECQGGSERPCSGNGYCSGDGSRQGDGSCQCHTGYKGPLCIDCTDGFFSLQRNETHSICSACDESCKTCSGPSNKDCIQCEVGWARVEDACVDVDECAAETSPCSDGQYCENVNGSYTCEDCDSTCVGCTGKGPANCKECIAGYTKESGQCTDIDECSLEEKACKRKNENCYNVPGSFVCVCPEGFEETEDACVQTAEGKVTEENPTQPPSREDL"}, "B4": {"name": "matrillin-2: secretory protein stably expressed in MB114 cells by retroviral transduction (protein, UniProt O08746 24-956, looked up)", "Matrilin-2": "RERPQARFPSRGRHVRMYPQTALLESSCENKRADLVFIIDSSRSVNTYDYAKVKEFILDILQFLDIGPDVTRVGLLQYGSTVKNEFSLKTFKRKSEVERAVKRMRHLSTGTMTGLAIQYALNIAFSEAEGARPLRENVPRIIMIVTDGRPQDSVAEVAAKARNTGILIFAIGVGQVDLNTLKAIGSEPHKDHVFLVANFSQIESLTSVFQNKLCTVHMCSVLEHNCAHFCLNTPGSYICKCKQGYILSTDQKTCRIQDLCATEDHGCEQLCVNMLGSFVCQCYSGYTLAEDGKRCTAVDYCASENHGCEHECVNAESSYLCRCHEGFALNSDKKTCSKIDYCASSNHGCQHECVNAQTSALCRCLKGFMLNPDRKTCRRINYCALNKPGCEHECVNTEEGHYCRCRQGYNLDPNGKTCSRVDHCAQQDHGCEQLCLNTEESFVCQCSEGFLINDDLKTCSRADYCLLSNHGCEYSCVNTDKSFACQCPEGHVLRSDGKTCAKLDSCALGDHGCEHSCVSSEDSFVCQCFEGYILRDDGKTCRRKDVCQDVNHGCEHLCVNSGESYVCKCLEGFRLAEDGKRCRRKNVCKSTQHGCEHMCVNNGNSYLCRCSEGFVLAEDGKHCKRCTEGPIDLVFVIDGSKSLGEENFETVKHFVTGIIDSLAVSPKAARVGLLQYSTQVRTEFTLRGFSSAKEMKKAVTHMKYMGKGSMTGLALKHMFERSFTQVEGARPPSTQVPRVAIVFTDGRAQDDVSEWASKAKANGITMYAVGVGKAIEEELQEIASEPIDKHLFYAEDFSTMGEISEKLKEGICEALEDSGGRQDSAAWDLPQQAHQPTEPEPVTIKIKDLLSCSNFAVQHRFLFEEDNLSRSTQKLFHSTKSSGNPLEESQDQCKCENLILFQNVANEEVRKLTQRLEEMTQRMEALENRLKYR"}}, "format_in_all_cases": "cell-based, murine", "key": {"[1]": {"tested_on": "MB114 cells", "test": "angiogenic sprouting in rat tail collagen matrices", "details": "5 days; for angiogenic sprouting of quiescent MB114 cell monolayers: MB114 cells stably expressing the transgene vs GFP, 10% FBS", "procedure": "(§1) The effect putative angiogenic agents had on MB114 cell activities were determined as follows: (i) cell proliferation using a [^3H]thymidine incorporation assay as described (Albig et al, 2006; Albig and Schiemann, 2004; Albig and Schiemann, 2005); (ii) cell invasion through Matrigel matrices using a modified Boyden-chamber assay as described (Albig et al, 2006; Albig and Schiemann, 2004; Albig and Schiemann, 2005); (iii) p38 MAPK phosphorylation using immunoblot analyses as described (Albig et al, 2006; Albig and Schiemann, 2004; Albig and Schiemann, 2005); (iv) angiogenic sprouting in rat tail collagen matrices as described (Albig et al, 2006; Albig and Schiemann, 2004); and (v) Hes1- and SBE-driven luciferase reporter gene assays as described (Albig et al, 2006; Albig and Schiemann, 2004; Albig and Schiemann, 2005).\nFinally, it was determined whether expression of these putative angiogenic factors could effect the angiogenic sprouting of quiescent MB114 cells monolayers. MB114 cells expressing either GFP or various putative angiogenic agents were grown to confluency, and subsequently were overlaid with rat tail collagen matrices. Angiogenic sprouting by quiescent EC monolayers was stimulated by inclusion of 10% FBS and allowed to proceed for 5 days. The quantity of invading angiogenic sprouts was determined by manual counting under a light microscope.\nBased on the findings described in the Examples above, the inventors hypothesized that MAGP-2 promotes angiogenesis by antagonizing Notch1 signaling. To test this hypothesis, it was first determined whether inhibiting Notch signaling in MB114 cells would enhance their angiogenic sprouting. In doing so, MB114 cells were transiently transfected with the Hes1-luciferase reporter gene (and pCMV-β-gal cDNA as control), and subsequently were treated overnight with or without the highly specific gamma-secretase inhibitor, DAPT (Sastre et al, 2001), which inhibits S3-mediated cleavage of Notch1 and, consequently, NICD-mediated induction of Hes1 expression. Afterward, luciferase and β-gal activities were determined. […] In this experiment, quiescent MB114 cell monolayers were overlaid with rat tail collagen matrices, and were induced to form angiogenic sprouts by addition of 10% FBS supplemented with or without DAPT (10 μM). Five days later the number of invading angiogenic spouts were quantified by manual counting on a light microscope. Based on these findings, the inventors conclude that Notch activation functions in mediating angiostasis in MB114 cells. […] Collectively, these findings indicate that Notch1 signaling antagonizes angiogenic sprouting in MB114 cells, and that downregulation of Notch1 signaling components is necessary for angiogenesis activation in MB114 cells.\nHaving shown that Notch1 signaling mediates angiostasis in MB114 cells, the inventors next asked whether MAGP-2 promotes angiogenesis in MB114 cells via its ability to antagonize Notch signaling. To do so, MAGP-2-expressing MB114 cells were engineered to constitutively express active Notch1 NICD fragment in an attempt to overcome the block of Notch processing mediated by MAGP-2. More particularly, GFP-, MAGP-2-, and MAGP-2/N1ICD-expressing MB114 cells were transiently transfected with pHes1-luciferase and pCMV-β-gal cDNAs. Luciferase and β-gal activities were determined 48 h post-transfection. As the inventors observed previously, MAGP-2 expression reduced Hes1-luciferase activity in MB114 cells (FIG. 5C), a reaction that was bypassed by co-expression of NICD in these cells (FIG. 5C). […] In this experiment, quiescent monolayers of GFP-, MAGP-2-, and MAGP-2/N1ICD-expressing MB114 cells were overlaid with rat tail collagen matrices and incubated in the absence or presence of 10% FBS for 5 days. Afterward, the number of invading angiogenic sprouts were determined by manual counting under a light microscope."}, "[2]": {"tested_on": "Hes1 promoter (Notch1 signaling)", "test": "Hes1-driven luciferase reporter gene assay in MB114 cells", "details": "MB114 cells treated overnight with 10 μM", "procedure": "as §1\nMAGP-2 can interact physically with Notch1 and its ligand, Jagged-1 (Miyamoto et al, 2006; Nehring et al, 2005), resulting in the ectodomain shedding of both molecules from the cell surface. Notch signaling also plays an essential role in regulating normal vessel development and angiogenesis in mammals (Leong and Karsan, 2005; Shawber and Kitajewski, 2004). Given these two facts, the inventors hypothesized that MAGP-2 promotes angiogenesis by modulating Notch1 signaling. To test this hypothesis, first measured were changes in luciferase expression driven by a Hes1-luciferase reporter gene whose expression is induced by Notch1 activation (Iso et al, 2003). MB114 and HUVEC cells were transiently transfected either with pHes1-luciferase, pCMV-β-gal, and MAGP-2 cDNAs, or with pHes1-luciferase and pCMV-β-gal cDNAs and subsequently stimulated with rMAGP-2 (1 or 5 mg/ml). Afterward, luciferase and β-gal activities contained in detergent-solubilized cell extracts were measured. In addition, GFP- and MAGP-2-expressing MB114 cells were transiently transfected with pHes1-luciferase and pCMV-β-gal cDNAs, together with or without Jagged-1 cDNA as indicated. Afterward, luciferase and β-gal activities were measured as above.\nTo further investigate the impact of MAGP-2 on Notch1 processing and NICD accumulation, the inventors took advantage of recent findings showing that the ability of TGF-β to induce Hes1 promoter activity requires Smad3 to interact physically with NICD (Blokzijl et al, 2003), a reaction that is dispensable for canonical Smad3-mediated signaling stimulated by TGF-β (Blokzijl et al, 2003). It was therefore reasoned that the ability of MAGP-2 to inhibit NICD production in ECs would reduce the capacity of TGF-β to induce luciferase expression driven by the Hes1 promoter, but not that driven by the synthetic Smad2/3-binding element (SBE). GFP- and MAGP-2-expressing MB114 cells were transiently transfected with either pHes1- or pSBE-luciferase, both together with pCMV-β-gal as indicated in FIG. 4B. Afterward, the resulting transfectants were stimulated overnight with increasing concentrations of TGF-β1 (0-5 ng/ml).\nBased on the findings described in the Examples above, the inventors hypothesized that MAGP-2 promotes angiogenesis by antagonizing Notch1 signaling. To test this hypothesis, it was first determined whether inhibiting Notch signaling in MB114 cells would enhance their angiogenic sprouting. […] Afterward, luciferase and β-gal activities were determined. […]"}, "[3]": {"tested_on": "MB114 cells", "test": "cell proliferation, [3H]thymidine incorporation assay", "details": "serum-starved MB114 cells stably expressing the transgene vs GFP; EGF 10 ng/ml, 24 h, 37° C.", "procedure": "as §1\n(§2) FIG. 1A show results from an experiment in which serum-starved MB114 cells, stably expressing either GFP or various putative angiogenic agents, were stimulated in the absence or presence of either bFGF (50 ng/ml) or EGF (10 ng/ml) for 24 h at 37° C. Differences in MB114 cell DNA synthesis was determined by measuring [^3H]thymidine incorporation into cellular DNA. […] In this experiment, invasion of MB114 cells expressing either GFP or various putative angiogenic agents through synthetic basement membranes was determined over 48 h using a modified Boyden-chamber assay."}, "[4]": {"tested_on": "MB114 cells", "test": "cell invasion through Matrigel matrices, modified Boyden-chamber assay", "details": "MB114 cells stably expressing the transgene vs GFP; 48 h", "procedure": "as §1, §2"}}, "data": [{"molecule": "C[C@H](NC(=O)Cc1cc(F)cc(F)c1)C(=O)N[C@H](C(=O)OC(C)(C)C)c1ccccc1", "note": "[DAPT, reference compound]", "values": [{"measurement": "number of invading angiogenic sprouts", "setting": "[1]; MB114 monolayers, 10% FBS with 10 μM compound vs untreated", "result": "significantly more"}, {"measurement": "Hes1 promoter activity (Hes1-luciferase)", "setting": "[2]", "result": "significantly inhibited"}]}, {"molecule": "B1", "values": [{"measurement": "proliferative response of MB114 cells to EGF ([3H]thymidine incorporation into cellular DNA)", "setting": "[3]", "result": "significantly enhanced"}, {"measurement": "angiogenic sprouting of quiescent MB114 cell monolayers", "setting": "[1]", "result": "failed to significantly affect"}]}, {"molecule": "B2", "values": [{"measurement": "angiogenic sprouting of quiescent MB114 cell monolayers", "setting": "[1]", "result": "significantly decreased"}]}, {"molecule": "B3", "values": [{"measurement": "MB114 cell invasion through synthetic basement membranes", "setting": "[4]", "result": "significantly induced"}, {"measurement": "angiogenic sprouting of quiescent MB114 cell monolayers", "setting": "[1]", "result": "failed to significantly affect"}]}, {"molecule": "B4", "values": [{"measurement": "angiogenic sprouting of quiescent MB114 cell monolayers", "setting": "[1]", "result": "failed to significantly affect"}]}]}
